The target of this experiment is TNFa, P01375. Briefly: not stated (told as a known affinity); low affinity dAb, known affinity, lower bound. The note with it: remark: other sources report otherwise.

Bounds are passed on as bounds.

TNFa, P01375, sequence (P01375 77-233 limits assumed): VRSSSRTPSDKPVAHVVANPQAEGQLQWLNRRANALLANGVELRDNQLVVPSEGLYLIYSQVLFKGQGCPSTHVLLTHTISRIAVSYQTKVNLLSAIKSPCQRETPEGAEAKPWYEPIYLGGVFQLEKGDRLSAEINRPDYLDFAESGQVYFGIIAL

B1: Vk(TAR1-5) (protein)
VL: DIQMTQSPSSLSASVGDRVTITCRASQSIFMNLLWYQQKPGKAPKLLIYNASVLQSGVPSRFSGSGSGTDFTLTISSLQPEDFATYYCQQVVWRPFTFGQGTKVEIKR
modifications: here or on the partner: biotinylated (sites not given)
The term Kd denotes a measure of binding affinity in units of concentration. Regarding B1, the Kd is over 5 µM.
